Patent US6896884B2, “Human chitinase, its recombinant production, its use for decomposing chitin, its use in therapy or prophylaxis against infection diseases” (Universiteit va Amsterdam, priority 1995, dated 2005)

Assays:
[1] = rat, in vivo
From the text: A prerequisite for the intravenous application of the chitinase is insight in its clearance. In the blood stream the most predominant isozyme is the 50 kDa protein. In tissue predominantly a 39 kDa isozyme is encountered. This appears to be formed by uptake of 50 kDa protein followed by proteolytic cleavage to a 39 kDa form that is remarkably stable in the lysosomal environment. […] Clearance is not a very rapid process as monitored by the disappearance of activity of human chitotriosidase in the blood stream of intravenously injected rats, the half life being about one hour. Only minor amounts of chitotriosidase are daily excreted into the urine. It is conceivable that some enzyme is efficiently recaptured by proximal tube epithelial cells since kidney is found to be extremely rich in ‘lysosomally processed’ 39 kDa enzyme.

[2] = hydrolysis of 4-methylumbelliferyl-chitobioside versus 4-methylumbelliferyl-chitotrioside; type: biochemical; settings: 4-methylumbelliferyl substrates
From the text: Purified 50 kDa and 39 kDa tissue chitotriosidases, and 50 kDa and 39 kDa chitozymes produced by recombinant DNA technology, are able to hydrolyse 4-methylumbelliferyl-chitotrioside and 4-methylumbelliferyl-chitobioside, the ratio of chitobioside activity to chitotrioside activity being about 0.7. Furthermore, p-nitrophenyl-chitotrioside and p-nitrophenyl-chitobioside are also efficiently hydrolyzed.

[3] = type: physicochemical
[4] = system: Mucor mucedo; assay: fungicidal effect on hyphal growth; type: cell-based; settings: for effect on hyphal growth, microscopical analysis: enzyme solution in 0.15 M NaCl pipetted on hyphal tips
Description: To test whether human chitotriosidase can exert an antifungal action, a chitinous fungus (Mucor mucedo) was grown on plates (containing malt extract, peptone, glucose and agar) under a Cellophane membrane in order to keep the hyphae flat against the agar surface (see ref.16). Individual sectors were cut out and mounted on microscope slides. Purified chitozyme 50 and chitozyme 39 were dialysed against 0.15 M sodium chloride. Samples of enzyme-containing solutions, and 0.15 M NaCl were pipetted on the hyphal tips. […] Application of saline had no effect. Negative effects on hyphal growth were detectable using chitozyme solutions with a concentration of enzyme as little as 0.005 mg/ml.

[5] = system: cell wall suspension of Micrococcus lysodeikticus; assay: lysozyme activity towards bacterial cell wall suspension; type: biochemical
[6] = chitin azure degradation (release of soluble azure at 550 nm); type: biochemical; settings: chitin azure 10 mg/ml, citrate/phosphate buffer pH 5.2; control chitinase from Serratia marcescens
Description: Chitin azure (Sigma) suspended in citrate/phosphate buffer (pH 5.2) at a final concentration of 10 mg/ml was used to monitor chitinase activity. Chitin degradation was detected spectrophotometrically at 550 nm by determination of release of soluble azure (18). Chitinase from Serratia marcescens (Sigma) was used as control. […] See for example ref.18.

[7] = type: in vitro ADME
Description: Production of the chitozymes via conventional technology in insect cells, plant cells, or vertebrate cells should be possible. Finally, transgenic animals could be envisioned as producers of large quantities of chitozymes in their milk for the applications described above. […] Successful proteolytic cleavage is only accomplished after denaturation of the enzyme, e.g. after heating in the presence of sodium dodecylsulphate. […] In analogy, chitotriosidase is stable at 37° C. in macrophage-conditioned medium that contains large quantities of various other secreted lytic enzymes.

[8] = system: a variety of proteases; type: in vitro ADME
Description: Successful proteolytic cleavage is only accomplished after denaturation of the enzyme, e.g. after heating in the presence of sodium dodecylsulphate. […] In analogy, chitotriosidase is stable at 37° C. in macrophage-conditioned medium that contains large quantities of various other secreted lytic enzymes.

Substance | clearance from the circulation [1] | ratio of chitobioside activity to chitotrioside activity [2] | effect on hyphal growth, microscopical analysis [4] | stability against a variety of proteases [8] | further results
tissue chitotriosidase: chitotriosidase purified from Gaucher disease spleen, isoform not specified | not immediately cleared | – | – | – | –
50 kDa tissue chitotriosidase: 50 kDa chitotriosidase purified from Gaucher disease spleen | – | about 0.7 | – | – | –
chitotriosidase: human chitinase produced by macrophages, named chitotriosidase; isoform not specified at the place | – | – | – | – | enzyme activity after spotting on filter paper ([3]; storage for several days at room temperature): enzyme activity is still recovered; loss of enzyme activity upon storage and freeze-thaw ([3]; −20 or −70° C., repeated cycles of freezing and thawing): No loss of enzyme activity; effect on fungal growth ([4]; Mucor species): inhibited growth; activity towards Micrococcus lysodeikticus cell wall suspension (lysozyme activity) [5]: No significant activity; chitinase activity, related to hydrolysis of 4-methyl-umbelliferyl-chitotrioside [6]: comparable to that of the bacterial chitinase; loss of enzyme activity on prolonged incubation [7]: does not result in detectable loss of enzyme activity; stability in macrophage-conditioned medium [7]: stable
chitozyme 50: recombinant human chitotriosidase isozyme of 50 kDa, encoded by chi.50 cDNA (SEQ ID NO:4), produced by transfected COS cells | not immediately cleared | about 0.7 | immediate cessation of hyphal growth | extremely stable | half life in the circulation, compared between isozymes [1]: somewhat longer than that of the 39 kDa enzyme
chitozyme 39: recombinant human chitotriosidase isozyme of 39 kDa, encoded by chi.39 cDNA (SEQ ID NO:6), produced by transfected COS cells | not immediately cleared | about 0.7 | immediate cessation of hyphal growth | extremely stable | –
chitozyme: recombinant chitotriosidase, isozyme not specified at the place | – | – | – | – | stability when added to cow milk [7]: completely stable
